Reference: patent US20260209266A1

What was measured:
[1] = biological target: Protein A (immobilized on a chromatography column) (UniProt P38507); experiment: Protein A chromatography (rProtein A FF), step gradient, 20 mM sodium citrate, 1 M NaCl
[2] = biological target: Protein A (immobilized on a chromatography column) (UniProt P38507); experiment: Protein A chromatography, linear pH gradient

elution pH from Protein A column [1] [pH]	Substance	elution pH from Protein A column [2] [pH]
4	differentially modified heterodimeric human IgG4 (Fc/ΔAdpFc) (from UniProt P01861 99-220; P01861 99-220)	
	IgG1 heterodimer having two IgG1 heavy chains identical but for an H435R/Y436F dipeptide modification in one CH3 domain (antibody)	3.9
4.5	differentially modified heterodimeric human IgG2 Fc/ΔAdpFc (from UniProt P01859 99-219; P01859 99-219)	
